Ends that are not written are not given here.

The target of the test is humanized variant of IPN002 (hu-IPN002). In words: competition ELISA; competitor: biotin-Tau 13-24 on hu-IPN002.

Take DHAGTYGLGDRK (also: biotinylated, position not given here, also used non-biotinylated) [Peptide 1 (Tau amino acids 13-24)]: the IC50 (read off the curve) stood at 400 nM.

The values are drawn from patent US20160122421A1.
